Results taken from patent US20130323249A1 (published 2013).

Experiments:
[1] = molecular target: T1, human PD-L1 expressed on the surface of cells (human, UniProt Q9NZQ7 19-290); test: flow cytometry (Intellicyt HTFC) on ES-2 ovarian carcinoma cells treated with IFNγ for 18 hr, PE anti-human IgG detection
T1 construct: whole, on cells; also called CHO-PD-L1; PD-L1 on ES-2 ovarian carcinoma cells
Protocol: (§1) After 0.5 hr incubation, cells were washed 1× with FACS Buffer and resuspended in 50 μl PE-conjugated, goat anti-human IgG (γ-chain specific) secondary antibody (Southern Biotech Cat #2040-09). Cells were further incubated for 0.5 hr and then washed 1× with FACS Buffer. Cells were resuspended in 25 μl FACS Buffer and the median fluorescence intensity in the FL2-H channel was determined using the Intellicyt HTFC flow cytometer.

rhPD-L1 = molecular target: T2, rhPD-L1 (human, UniProt Q9NZQ7 19-238, limits assumed); test: Biacore SPR, rhPD-L1 immobilized on CM5 chip, antibody in solution, 1:1 Langmuir fit
T2 construct: also called recombinant human PD-L1
T2 sequence (Q9NZQ7 19-238 limits assumed): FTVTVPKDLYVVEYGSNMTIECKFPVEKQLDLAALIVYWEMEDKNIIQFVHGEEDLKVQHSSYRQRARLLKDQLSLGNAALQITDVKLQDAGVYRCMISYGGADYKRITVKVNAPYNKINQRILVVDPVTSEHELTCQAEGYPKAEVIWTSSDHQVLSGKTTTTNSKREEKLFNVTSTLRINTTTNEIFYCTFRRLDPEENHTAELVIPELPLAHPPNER
Protocol: All measurements were conducted in HBS-EP buffer with a flow rate of 30 μL/min. Antibody was diluted so as to obtain a series of concentrations. A 1:1 (Langmuir) binding model was used to fit the data.

[2] = molecular target: T1, human PD-L1 expressed on the surface of …; test: flow cytometry (Intellicyt HTFC) on CHO-PD-L1 cells, PE anti-human IgG detection
Protocol: as §1

PD-L1/Fc = molecular target: T3, PD-L1/Fc (human, UniProt Q9NZQ7 19-238, limits assumed); test: competition ELISA: G12 IgG pre-mixed with PD-L1/Fc, binding to coated PD1/His detected with anti-human Fc HRP
T3 construct: also called rhPD-L1; not shown: Fc part (detected with anti-human Fc)
T3 sequence (Q9NZQ7 19-238 limits assumed): as above
Protocol: A 96-well ELISA plate was coated with 1 ng/μL PD1/His at 4° C. overnight, then blocked with casein in PBS. […] Transferred 25 μl the mixtures to the ELISA plate and incubated 30 min with shaking. Washed 3 times with PBST. Added HRP conjugated Goat anti-human Fc (1:500 in casein), used TMB as substrate and developed 30 min. 2M H₂SO₄ was added to stop the reaction. Read the OD at 450 nm.

[3] = molecular target: T1, human PD-L1 expressed on the surface of …; test: flow cytometry competition: CHO-PD-L1 cells pre-incubated with G12, then rhPD-1-Fc, detected with Alexa-Fluor 647 anti-PD-1 antibody
Excerpt: Data points are shown as the median fluorescence detected in the FL-4H channel +/− Std Error.

T1 sequence (Q9NZQ7 19-290): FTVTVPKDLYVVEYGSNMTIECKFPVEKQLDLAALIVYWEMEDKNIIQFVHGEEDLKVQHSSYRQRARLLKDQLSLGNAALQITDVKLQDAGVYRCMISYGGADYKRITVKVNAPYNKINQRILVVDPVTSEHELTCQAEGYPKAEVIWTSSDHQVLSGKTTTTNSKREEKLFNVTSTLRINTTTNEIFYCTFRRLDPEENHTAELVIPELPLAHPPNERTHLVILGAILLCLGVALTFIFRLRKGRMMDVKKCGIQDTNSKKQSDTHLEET

- EC50 [1]: 45.8 pM
- Kd (rhPD-L1): 37.4 pM
- koff (rhPD-L1): 0.00049 s⁻¹
- kon (rhPD-L1): 1.31e+07 M⁻¹ s⁻¹
- EC50 [2]: 1710 pM
- IC50 (PD-L1/Fc): 72.9 pM
- IC50 [3]: 1760 pM
B1: G12 anti-PD-L1 antibody (antibody, V domains shown)
VH: EVQLVQSGAEVKKPGASVKVSCKASGYTFTGYYMHWVRQAPGQGLEWMGWINPNSDNTGSAQKFQGRVFMTKTTSLNTAYMELSGLRSEDTAIYYCARERSSGYFDFWGQGTLVTVSS
VL: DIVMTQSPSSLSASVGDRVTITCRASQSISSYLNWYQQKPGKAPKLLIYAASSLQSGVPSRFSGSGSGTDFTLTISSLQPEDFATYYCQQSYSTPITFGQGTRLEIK
notes: Fully human antibody of an IgG class; detected with anti-human IgG gamma-chain specific secondary; also called anti-PD-L1 mAb G12
